Measured values as given in patent US20150368338A1 (Janssen / Centocor, published 2015).
Positions count from the first letter of the chain named.

T1: IFN-αF (human, UniProt P01568 24-189)
T1 construct: Recombinant, HEK293; also called IFN-α21
T1 chain: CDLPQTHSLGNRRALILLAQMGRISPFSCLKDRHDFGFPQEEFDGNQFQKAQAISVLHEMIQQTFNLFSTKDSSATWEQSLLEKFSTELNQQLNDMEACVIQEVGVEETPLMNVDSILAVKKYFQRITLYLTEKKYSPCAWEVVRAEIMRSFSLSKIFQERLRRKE

B1: IFWM3382 (antibody, IgG1, V domains shown)
VH: EVQLVQSGAEVKKPGESLKISCKGSGYSFTSYWIGWVRQMPGKGLEWMGIIDPSDSDTRYSPSFQGQVTISADKSISTAYLQWSSLKASDTAMYYCARHPGLAWAPDFDYWGQGTLVTVSS
VL: DIQMTQSPSSLSASVGDRVTITCRASQSIGSALNWYQQKPGKAPKLLIYFASSLQSGVPSRFSGSGSGTDFTLTISSLQPEDFATYYCQQSYDFPLTFGQGTKVEIK
notes: mAb; IgG1/kappa said of the parent and of selected mAbs; also called IFWB3117
B2: IFWM3420 (antibody, IgG1, V domains shown)
VH: B1 VH with R59A, A103N
VL: B1 VL with G30A, S31G, A32F, F50Y, D93S, F94I, L96I
notes: mAb; IgG1/kappa said of the parent and of selected mAbs; also called IFWB3155
B3: IFWM3389 (antibody, IgG1, V domains shown)
VH: B1 VH
VL: B1 VL with G30D, S31D, A32F, Y92H, D93T, F94L
notes: mAb; IgG1/kappa said of the parent and of selected mAbs; also called IFWB3124
B4: IFWM3390 (antibody, IgG1, V domains shown)
VH: B1 VH
VL: B1 VL with G30D, S31G, Y92F
notes: mAb; IgG1/kappa said of the parent and of selected mAbs; also called IFWB3125
B5: IFWM3388 (antibody, IgG1, V domains shown)
VH: B1 VH
VL: B1 VL with S31K, A32S
notes: mAb; IgG1/kappa said of the parent and of selected mAbs; also called IFWB3123
B6: IFWM3396 (antibody, IgG1, V domains shown)
VH: B1 VH
VL: B1 VL with G30S, S31E, A32Y, Y92H, D93S, F94L, L96I
notes: mAb; IgG1/kappa said of the parent and of selected mAbs; also called IFWB3131
B7: IFWM3419 (antibody, IgG1, V domains shown)
VH: B1 VH
VL: B1 VL with G30A, S31G, A32F, F50Y, D93S, F94I, L96I
notes: mAb; IgG1/kappa said of the parent and of selected mAbs; also called IFWB3154
B8: IFWM3384 (antibody, IgG1, V domains shown)
VH: B1 VH
VL: B1 VL with G30T, S31N, A32F, Y92L
notes: mAb; IgG1/kappa said of the parent and of selected mAbs; also called IFWB3119
B9: IFWM3394 (antibody, IgG1, V domains shown)
VH: B1 VH
VL: B1 VL with G30N, S31E, A32F, D93S, F94T
notes: mAb; IgG1/kappa said of the parent and of selected mAbs; also called IFWB3129
B10: IFWM3398 (antibody, IgG1, V domains shown)
VH: B1 VH
VL: B1 VL with G30N, S31G, A32V, Y92H
notes: mAb; IgG1/kappa said of the parent and of selected mAbs; also called IFWB3133
B11: IFWM3392 (antibody, IgG1, V domains shown)
VH: B1 VH
VL: B1 VL with G30D, S31R, Y92F
notes: mAb; IgG1/kappa said of the parent and of selected mAbs; also called IFWB3127
B12: IFWM3418 (antibody, IgG1, V domains shown)
VH: B1 VH with A103N
VL: B1 VL with G30A, S31G, A32F, F50Y, D93S, F94I, L96I
notes: mAb; IgG1/kappa said of the parent and of selected mAbs; also called IFWB3153
B13: IFWM3386 (antibody, IgG1, V domains shown)
VH: B1 VH
VL: B1 VL with G30A, S31E, A32F, Y92I
notes: mAb; IgG1/kappa said of the parent and of selected mAbs; also called IFWB3121
B14: IFWM3393 (antibody, IgG1, V domains shown)
VH: B1 VH
VL: B1 VL with G30T, A32S, Y92F, F94L
notes: mAb; IgG1/kappa said of the parent and of selected mAbs; also called IFWB3128
B15: IFWM3395 (antibody, IgG1, V domains shown)
VH: B1 VH
VL: B1 VL with G30S, S31K, A32F, L96I
notes: mAb; IgG1/kappa said of the parent and of selected mAbs; also called IFWB3130
B16: IFWM3383 (antibody, IgG1, V domains shown)
VH: B1 VH
VL: B1 VL with G30S, S31K, A32F, Y92N, D93T, F94L, L96F
notes: mAb; IgG1/kappa said of the parent and of selected mAbs; also called IFWB3118
B17: IFWM3403 (antibody, IgG1, V domains shown)
VH: B1 VH
VL: B1 VL with G30R, S31N, A32S, Y49K, F50W, S91L, F94W
notes: mAb; IgG1/kappa said of the parent and of selected mAbs; also called IFWB3138
B18: IFWM3387 (antibody, IgG1, V domains shown)
VH: B1 VH
VL: B1 VL with S31G, A32F, D93S, F94L, L96I
notes: mAb; IgG1/kappa said of the parent and of selected mAbs; also called IFWB3122
B19: IFWM3397 (antibody, IgG1, V domains shown)
VH: B1 VH
VL: B1 VL with G30T, S31G, A32F, F50A, Y92H
notes: mAb; IgG1/kappa said of the parent and of selected mAbs; also called IFWB3132
B20: IFWM3391 (antibody, IgG1, V domains shown)
VH: B1 VH
VL: B1 VL with G30N, S31N, A32F, Y92F, D93N, F94L, L96I
notes: mAb; IgG1/kappa said of the parent and of selected mAbs; also called IFWB3126

The binders below were run against T2, human IFN-ω (human, UniProt P05000 24-195) (assay: ProteOn SPR, cell supernatant;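 also: each binding measurement used just a single antigen concentration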).
T2 construct: Recombinant, HEK293; also called interferon omega

Kd	Binder
0.03 nM	B1
0.036 nM	B2
0.017 nM	B3
0.01 nM	B4
0.033 nM	B5
0.011 nM	B6
0.086 nM	B7
0.026 nM	B8
0.045 nM	B9
0.026 nM	B10
0.023 nM	B11
0.089 nM	B12
0.026 nM	B13
0.057 nM	B14
0.019 nM	B15
0.028 nM	B16
0.007 nM	B17
0.039 nM	B18
0.025 nM	B19
0.023 nM	B20

Each binder was assayed against T3, IFN-αC (human, UniProt P01566 24-189) (assay: ProteOn SPR, cell supernatant;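 also: each binding measurement used just a single antigen concentration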).
T3 construct: Recombinant, HEK293; also called IFN-α10

Kd	Binder
0.024 nM	B1
0.113 nM	B2
0.024 nM	B3
0.011 nM	B4
0.03 nM	B5
0.005 nM	B6
0.126 nM	B7
0.029 nM	B8
0.063 nM	B9
0.017 nM	B10
0.016 nM	B11
0.191 nM	B12
0.031 nM	B13
0.049 nM	B14
0.116 nM	B15
0.069 nM	B16
0.025 nM	B17
0.09 nM	B18
0.027 nM	B19
0.016 nM	B20

Biological target: T1, IFN-αF
Experiment: ProteOn SPR, cell supernatant;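 also: each binding measurement used just a single antigen concentration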

Kd	Binder
0.02 nM	B1
0.118 nM	B2
0.009 nM	B3
0.011 nM	B4
0.019 nM	B5
0.007 nM	B6
0.158 nM	B7
0.033 nM	B8
0.063 nM	B9
0.017 nM	B10
0.014 nM	B11
0.229 nM	B12
0.029 nM	B13
0.041 nM	B14
0.102 nM	B15
0.06 nM	B16
0.027 nM	B17
0.058 nM	B18
0.028 nM	B19
0.025 nM	B20

The binders below were run against T4, IFN-αJ1 (human, UniProt P01567 24-189) (assay: ProteOn SPR, cell supernatant;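 also: each binding measurement used just a single antigen concentration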).
T4 construct: Recombinant, HEK293; also called IFN-α7

Kd	Binder
0.037 nM	B1
0.299 nM	B2
0.032 nM	B3
0.03 nM	B4
0.055 nM	B5
0.037 nM	B6
0.399 nM	B7
0.068 nM	B8
0.077 nM	B9
0.044 nM	B10
0.021 nM	B11
0.656 nM	B12
0.087 nM	B13
0.096 nM	B14
0.181 nM	B15
0.086 nM	B16
0.059 nM	B17
0.161 nM	B18
0.078 nM	B19
0.066 nM	B20

Each binder was assayed against T5, IFN-α4a (human, UniProt P05014 24-189) (assay: ProteOn SPR, cell supernatant;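 also: each binding measurement used just a single antigen concentration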).
T5 construct: Recombinant, HEK293; also called IFN-αM1

Kd	Binder
0.075 nM	B1
0.475 nM	B2
0.098 nM	B3
0.075 nM	B4
0.084 nM	B5
0.079 nM	B6
0.582 nM	B7
0.077 nM	B8
0.105 nM	B9
0.061 nM	B10
0.058 nM	B11
1.16 nM	B12
0.103 nM	B13
0.166 nM	B14
0.279 nM	B15
0.143 nM	B16
0.062 nM	B17
0.169 nM	B18
0.119 nM	B19
0.117 nM	B20

Each binder was assayed against T6, IFN-αG (human, UniProt P01569 24-189) (assay: ProteOn SPR, cell supernatant;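 also: each binding measurement used just a single antigen concentration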).
T6 construct: Recombinant, HEK293; also called IFN-α5

Kd	Binder
0.03 nM	B1
0.037 nM	B2
0.033 nM	B3
0.01 nM	B4
0.027 nM	B5
0.061 nM	B6
0.081 nM	B7
0.022 nM	B8
0.091 nM	B9
0.022 nM	B10
0.019 nM	B11
0.178 nM	B12
0.026 nM	B13
0.064 nM	B14
0.063 nM	B15
0.084 nM	B16
0.027 nM	B17
0.034 nM	B18
0.043 nM	B19
0.044 nM	B20

These binders were tested against T7, IFN-αWA (human, UniProt P05015 24-189) (assay: ProteOn SPR, cell supernatant).
T7 construct: Recombinant, HEK293; also called IFN-α16

Kd	Binder
0.032 nM	B1
0.124 nM	B2
0.03 nM	B3
0.029 nM	B4
0.044 nM	B5
0.068 nM	B6
0.193 nM	B7
0.017 nM	B8
0.049 nM	B9
0.03 nM	B10
0.025 nM	B11
0.493 nM	B12
0.035 nM	B13
0.078 nM	B14
0.063 nM	B15
0.064 nM	B16
0.023 nM	B17
0.069 nM	B18
0.062 nM	B19
0.042 nM	B20
